Experimental data as given in patent publication US20210206865A1 (Regeneron, published 2021).

T1: human BCMA on the surface of cell lines (NCI-H929, MM.1S, OPM-2, RPMI-8226, Daudi, Raji, MOLP-8, U266) (human, UniProt Q02223 1-184)
T1 sequence: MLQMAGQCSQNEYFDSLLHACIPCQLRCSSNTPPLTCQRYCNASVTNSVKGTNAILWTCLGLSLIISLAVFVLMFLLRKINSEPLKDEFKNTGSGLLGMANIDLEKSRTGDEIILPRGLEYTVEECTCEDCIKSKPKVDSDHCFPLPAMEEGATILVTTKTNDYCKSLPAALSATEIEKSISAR

T2: human BCMA-MFC (extracellular domain of human BCMA with C-terminal mFc tag) (human)
T2 construct: also called hBCMA.mFc
T2 chain: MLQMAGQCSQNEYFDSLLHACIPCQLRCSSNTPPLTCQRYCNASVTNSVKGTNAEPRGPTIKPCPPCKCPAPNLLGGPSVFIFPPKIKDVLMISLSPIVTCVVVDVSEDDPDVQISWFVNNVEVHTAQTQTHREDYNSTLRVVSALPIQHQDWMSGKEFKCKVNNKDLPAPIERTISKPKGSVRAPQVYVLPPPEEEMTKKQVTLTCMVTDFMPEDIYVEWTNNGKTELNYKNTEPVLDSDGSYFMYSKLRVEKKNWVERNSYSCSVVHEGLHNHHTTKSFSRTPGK


Legend:
[1] = target: T1, human BCMA on the surface of cell lines …; assay: cell-based or functional assay
[2] = target: T2, human BCMA-MFC (extracellular domain of …); assay: SPR Biacore, 25 C, mAb captured via anti-hFc
Method: (§1) The CM5 Biacore sensor surface was derivatized by amine coupling with a monoclonal mouse anti-human Fc antibody (GE, #BR-1008-39) to capture purified anti-BCMA mAbs and anti-BCMA×anti-CD3 bispecific mAbs. All Biacore binding studies were performed in a buffer composed of 0.01M HEPES pH 7.4, 0.15M NaCl, 3 mM EDTA, 0.05% v/v Surfactant P20 (HBS-ET running buffer). […] Antigen samples were then injected over the anti-BCMA and anti-BCMA×anti-CD3 bispecific mAbs captured surfaces at a flow rate of 30 μL/minute. Antibody-reagent association was monitored for 5 minutes while dissociation in HBS-ET running buffer was monitored for 10 minutes. All of the binding kinetics experiments were performed at 25° C. Kinetic association (kₐ) and dissociation (kd) rate constants were determined by fitting the real-time sensorgrams to a 1:1 binding model using Scrubber 2.0c curve fitting software. Binding dissociation equilibrium constants (KD) and dissociative half-lives (t1/2) were calculated from the kinetic rate constants as: […]

[3] = target: T3, monkey BCMA-MMH (monkey BCMA with C-terminal myc-myc-hexahistidine tag) (monkey); assay: SPR Biacore, 25 C, mAb captured via anti-hFc
T3 construct: Monomeric antigen; also called mfBCMA.mmh
Method: as §1

[4] = target: T1, human BCMA on the surface of cell lines …; assay: flow cytometry, Alexa647 conjugate on Raji cells
Method: (§2) Cells were then washed and fixed for 25 mins at 4° C. using a 50% solution of BD Cytofix (BD, Cat #554655) diluted in PBS. […] After gating for live cells and single cells, the mean fluorescent intensity (MFI) was determined, and MFI values were plotted in Graphpad Prism using a four-parameter logistic equation over a 10-point response curve to calculate EC₅₀s. The zero condition for each dose-response curve is also included in the analysis as a continuation of the two-fold serial dilution and is represented as the lowest dose.

[5] = target: T1, human BCMA on the surface of cell lines …; assay: flow cytometry, Alexa647 conjugate on MM.1S cells
Method: as §2

[6] = target: T1, human BCMA on the surface of cell lines …; assay: flow cytometry, Alexa647 conjugate on OPM-2 cells
Method: as §2

[7] = target: T1, human BCMA on the surface of cell lines …; assay: flow cytometry, Alexa647 conjugate on NCI-H929 cells
Method: as §2

[8] = target: T1, human BCMA on the surface of cell lines …; assay: flow cytometry, Alexa647 conjugate on RPMI-8226 cells
Method: as §2

Binder	Median EC50, % Survival of Molp8 target cells, human effector cells [1] [nM]	Median EC50, % Survival of RPMI8226 target cells, human effector cells [1] [nM]	Median EC50, % T activation with Molp8 target cells, human effector cells [1] [nM]	Median EC50, % T activation with RPMI8226 target cells, human effector cells [1] [nM]	30 nM hBCMA.mFc Bind (RU) [2] [RU]	Kd [2] [nM]	t1/2 [2] [min]	90 nM mfBCMA.mmh Bind (RU) [3] [RU]	Kd [3] [nM]	t1/2 [3] [min]	other results
bsAb25441D bispecific antibody (REGN5458), anti-BCMA x anti-CD3 (bispecific antibody, human IgG4 S228P, kappa, Anti-BCMA arm from mAb21581, anti-CD3 arm and common light chain from mAb7221G; also called bsAb25441D9; mAb25441D) heavy 1: EVQLVESGGGLVQPGGSLRLSCAASGFTFSNFWMTWVRQAPGKGLEWVANMNQDGSEKYYVDSVKGRFTISRDNAKSSLYLQMNSLRAEDTAVYYCARDREYCISTSCYDDFDYWGQGTLVTVSSASTKGPSVFPLAPCSRSTSESTAALGCLVKDYFPEPVTVSWNSGALTSGVHTFPAVLQSSGLYSLSSVVTVPSSSLGTKTYTCNVDHKPSNTKVDKRVESKYGPPCPPCPAPPVAGPSVFLFPPKPKDTLMISRTPEVTCVVVDVSQEDPEVQFNWYVDGVEVHNAKTKPREEQFNSTYRVVSVLTVLHQDWLNGKEYKCKVSNKGLPSSIEKTISKAKGQPREPQVYTLPPSQEEMTKNQVSLTCLVKGFYPSDIAVEWESNGQPENNYKTTPPVLDSDGSFFLYSRLTVDKSRWQEGNVFSCSVMHEALHNHYTQKSLSLSLGK heavy 2: EVQLVESGGGLVQPGRSLRLSCAASGFTFDDYSMHWVRQAPGKGLEWVSGISWNSGSKGYADSVKGRFTISRDNAKNSLYLQMNSLRAEDTALYYCAKYGSGYGKFYHYGLDVWGQGTTVTVSSASTKGPSVFPLAPCSRSTSESTAALGCLVKDYFPEPVTVSWNSGALTSGVHTFPAVLQSSGLYSLSSVVTVPSSSLGTKTYTCNVDHKPSNTKVDKRVESKYGPPCPPCPAPPVAGPSVFLFPPKPKDTLMISRTPEVTCVVVDVSQEDPEVQFNWYVDGVEVHNAKTKPREEQFNSTYRVVSVLTVLHQDWLNGKEYKCKVSNKGLPSSIEKTISKAKGQPREPQVYTLPPSQEEMTKNQVSLTCLVKGFYPSDIAVEWESNGQPENNYKTTPPVLDSDGSFFLYSRLTVDKSRWQEGNVFSCSVMHEALHNRFTQKSLSLSPGK light: not shown	0.707	0.0345	1.1	0.0649	107	≤ 0.0223	≤ 1160	14.8	49.9	1.3	–
bsAb25442D bispecific antibody (REGN5459), anti-BCMA x anti-CD3 (bispecific antibody, human IgG4 S228P, kappa, Anti-BCMA arm from mAb21581, anti-CD3 arm and common light chain from mAb7221G20; also called mAb25442D; mAb25442D-A647) heavy 1: EVQLVESGGGLVQPGGSLRLSCAASGFTFSNFWMTWVRQAPGKGLEWVANMNQDGSEKYYVDSVKGRFTISRDNAKSSLYLQMNSLRAEDTAVYYCARDREYCISTSCYDDFDYWGQGTLVTVSSASTKGPSVFPLAPCSRSTSESTAALGCLVKDYFPEPVTVSWNSGALTSGVHTFPAVLQSSGLYSLSSVVTVPSSSLGTKTYTCNVDHKPSNTKVDKRVESKYGPPCPPCPAPPVAGPSVFLFPPKPKDTLMISRTPEVTCVVVDVSQEDPEVQFNWYVDGVEVHNAKTKPREEQFNSTYRVVSVLTVLHQDWLNGKEYKCKVSNKGLPSSIEKTISKAKGQPREPQVYTLPPSQEEMTKNQVSLTCLVKGFYPSDIAVEWESNGQPENNYKTTPPVLDSDGSFFLYSRLTVDKSRWQEGNVFSCSVMHEALHNHYTQKSLSLSLGK heavy 2: EVQLVESGGGLVQPGRSLRLSCAASGFTFDDYSMHWVRQAPGKGLEWVSGISWNSGSIGYADSVKGRFTISRDNAKNSLYLQMNSLRAEDTALYYCAKYGSGYGKFYYYGMDVWGQGTTVTVSSASTKGPSVFPLAPCSRSTSESTAALGCLVKDYFPEPVTVSWNSGALTSGVHTFPAVLQSSGLYSLSSVVTVPSSSLGTKTYTCNVDHKPSNTKVDKRVESKYGPPCPPCPAPPVAGPSVFLFPPKPKDTLMISRTPEVTCVVVDVSQEDPEVQFNWYVDGVEVHNAKTKPREEQFNSTYRVVSVLTVLHQDWLNGKEYKCKVSNKGLPSSIEKTISKAKGQPREPQVYTLPPSQEEMTKNQVSLTCLVKGFYPSDIAVEWESNGQPENNYKTTPPVLDSDGSFFLYSRLTVDKSRWQEGNVFSCSVMHEALHNRFTQKSLSLSPGK light: not shown	1.36	0.106	6.47	0.75	96.8	≤ 0.0223	≤ 1160	12.7	38.8	1.3	koff [2]: ≤ 1e-05 s⁻¹; kon [2]: 449000 M⁻¹ s⁻¹; koff [3]: 0.00864 s⁻¹; kon [3]: 223000 M⁻¹ s⁻¹; S/N (ratio of mAb25442D-A647 MFI to Isotype-A647 MFI) [4]: 2; EC50 [5]: 83 nM; S/N (ratio of mAb25442D-A647 MFI to Isotype-A647 MFI) [5]: 43; EC50 [6]: 57 nM; S/N (ratio of mAb25442D-A647 MFI to Isotype-A647 MFI) [6]: 19; EC50 [7]: 79 nM; S/N (ratio of mAb25442D-A647 MFI to Isotype-A647 MFI) [7]: 470; EC50 [8]: 27 nM; S/N (ratio of mAb25442D-A647 MFI to Isotype-A647 MFI) [8]: 9
